We go through three molecules from US20230174663A1 (MEDABOME, published 2023).

“And” between values parts separate entries of the source, which are not always exact repeats. Identical values can stand only once.

The target of assay [1] is T1, human TfR1-GFP fusion protein (rTfR1-GFP) expressed on the membrane of CHO-DG44 cells (human, UniProt P02786 1-760).
T1 construct: whole, on cells; also called CHO/rTfR1-GFP cells; CHO/rTfR-GFP cells; not shown: GFP (also called EGFP) fused in frame to the C-terminus
T1 sequence (P02786 whole entry, the tested form may be a part): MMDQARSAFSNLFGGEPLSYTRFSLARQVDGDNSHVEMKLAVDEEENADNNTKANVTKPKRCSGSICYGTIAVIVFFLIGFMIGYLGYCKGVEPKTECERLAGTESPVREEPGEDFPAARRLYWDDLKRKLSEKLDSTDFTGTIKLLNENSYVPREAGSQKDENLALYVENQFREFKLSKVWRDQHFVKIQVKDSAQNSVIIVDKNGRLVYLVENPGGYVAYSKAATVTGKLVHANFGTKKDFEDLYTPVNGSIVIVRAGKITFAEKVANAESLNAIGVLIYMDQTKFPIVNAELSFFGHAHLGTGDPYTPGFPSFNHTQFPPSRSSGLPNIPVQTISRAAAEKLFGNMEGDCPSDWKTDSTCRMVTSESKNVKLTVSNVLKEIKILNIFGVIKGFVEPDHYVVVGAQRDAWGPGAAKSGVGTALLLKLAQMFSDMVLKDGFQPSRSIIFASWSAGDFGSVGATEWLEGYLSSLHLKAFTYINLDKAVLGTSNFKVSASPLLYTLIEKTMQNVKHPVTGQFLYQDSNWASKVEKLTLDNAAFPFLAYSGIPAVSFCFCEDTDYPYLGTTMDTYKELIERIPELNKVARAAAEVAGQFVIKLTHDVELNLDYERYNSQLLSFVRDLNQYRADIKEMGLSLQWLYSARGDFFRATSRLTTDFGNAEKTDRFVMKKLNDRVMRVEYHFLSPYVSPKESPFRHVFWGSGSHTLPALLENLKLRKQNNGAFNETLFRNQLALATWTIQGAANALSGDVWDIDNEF
Briefly: FACS titration on CHO/rTfR1-GFP cells. An excerpt: The cDNA was in-frame fused with a GFP-coding DNA fragment to its C-terminus and then cloned into an in-house expression vector containing the human CMV promoter and a puromycin resistant gene (PuroR) for selection. […] CHO cell colonies stably expressing high-level EGFP were isolated and subcloned.

For assay [2], the target named is T2, recombinantly expressed human TfR1 extracellular domain with a His tag (rTfR1-ECD, ACRO Biosystems) (human, UniProt P02786 89-760).
T2 construct: extracellular domain; Bought reagent; also called 6His-tagged rTfR1-ECD; extracellular domain of TfR1
T2 sequence (P02786 other isoform, or with tags, fused parts or gaps): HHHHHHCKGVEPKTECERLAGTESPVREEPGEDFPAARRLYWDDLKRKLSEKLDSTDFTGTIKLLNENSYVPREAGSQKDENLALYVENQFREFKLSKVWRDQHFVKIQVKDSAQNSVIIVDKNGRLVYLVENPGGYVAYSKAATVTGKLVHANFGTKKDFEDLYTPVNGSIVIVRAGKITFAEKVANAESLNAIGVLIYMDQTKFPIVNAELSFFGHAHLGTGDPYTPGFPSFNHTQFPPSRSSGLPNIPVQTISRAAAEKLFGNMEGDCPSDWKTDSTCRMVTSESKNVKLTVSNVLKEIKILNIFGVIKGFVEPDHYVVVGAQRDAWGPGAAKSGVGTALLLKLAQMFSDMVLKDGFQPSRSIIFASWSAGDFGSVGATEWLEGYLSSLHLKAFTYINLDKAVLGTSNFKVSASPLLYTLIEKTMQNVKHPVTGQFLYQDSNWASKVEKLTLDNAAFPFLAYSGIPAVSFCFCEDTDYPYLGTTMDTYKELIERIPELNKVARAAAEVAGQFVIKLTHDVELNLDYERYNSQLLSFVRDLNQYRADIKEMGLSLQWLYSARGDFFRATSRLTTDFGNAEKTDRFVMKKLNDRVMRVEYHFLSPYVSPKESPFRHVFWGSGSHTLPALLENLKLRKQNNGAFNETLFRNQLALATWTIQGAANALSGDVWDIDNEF
Kind of assay: BLI (Octet QK), mAb captured on anti-mouse Fc (AMC) biosensors, rTfR1-ECD in solution. (BLI is a label-free optical method that tracks binding on a fibre tip over time.)

The target in assay [3] is T2, recombinantly expressed human TfR1 …. Kind of assay: direct ELISA, plate coated with 0.1 µg/mL rTfR1-ECD, detection anti-mouse IgG Fc-HRP. As for the experimental part:
The plate was coated with 0.1 μg/mL of purified rTfR1-ECD containing a C-terminal 6×His tag. A mouse anti-6×His mAb and an isotype control Ab were used as positive and negative controls, respectively. All the primary antibodies were in 3-fold serial dilutions with a starting concentration of 3 μg/mL. Peroxidase AffiniPure Goat Anti-Mouse IgG Fey at 1:6,000 dilution was used for detection.
3,3′,5,5′-Tetramethylbenzidine (TMB) substrate was added and absorbance at 450 nm of wavelength was measured using a SpectraMax microplate reader (Molecular Device, San Jose, Calif.).
(ELISA stands for enzyme-linked immunosorbent assay.)

Assay [4] has the same target. Briefly: BLI (Octet QK), 10 nM mAb loaded on anti-mouse Fc sensors; same value printed in the rows 20, 8, 3.2 and 1.28 nM rTfR1-ECD; koff Error blank.
For assay [5] the target is unchanged. Briefly: BLI (Octet QK), 50 nM mAb loaded on anti-mouse Fc sensors; same value printed in the rows 20, 8, 3.2 and 1.28 nM rTfR1-ECD; koff Error blank.
Assay [6] has the same target. Briefly: BLI (Octet QK), 10 nM mAb loaded on anti-mouse Fc sensors; same value printed in the rows 20, 8, 3.2 and 1.28 nM rTfR1-ECD; kon Error 2.12E+04, Full R^2 0.989.
Assay [7] has the same target. Kind of assay: BLI (Octet QK), 50 nM mAb loaded on anti-mouse Fc sensors; same value printed in the rows 20, 8, 3.2 and 1.28 nM rTfR1-ECD; kon Error 9.80E+03, Full R^2 0.9909.
For assay [8] the target is unchanged. Kind of assay: BLI (Octet QK), cAb captured on anti-human Fc (AHC) biosensors, rTfR1-ECD 50 nM to 1.28 nM in solution. As to the method: (§1) Concentrations of rTfR1-ECD ranged from 50 nM to 1.28 nM by 2.5-fold serial dilutions.
Assay [9] shares this target. Briefly: BLI (Octet QK), 10 nM cAb loaded on anti-human Fc sensors; same value printed in the rows 50, 20, 8, 3.2 and 1.28 nM rTfR1-ECD; koff Error blank. As for the experimental part:
as §1

Assay [10] shares this target. Kind of assay: BLI (Octet QK), 50 nM cAb loaded on anti-human Fc sensors; same value printed in the rows 50, 20, 8, 3.2 and 1.28 nM rTfR1-ECD; koff Error blank. As to the method:
as §1

Assay [11] shares this target. Briefly: BLI (Octet QK), 10 nM cAb loaded on anti-human Fc sensors; same value printed in the rows 50, 20, 8, 3.2 and 1.28 nM rTfR1-ECD; kon Error 5.18E+03, Full R^2 0.9885. As for the experimental part:
as §1

The target is the same in assay [12]. Kind of assay: BLI (Octet QK), 50 nM cAb loaded on anti-human Fc sensors; same value printed in the rows 50, 20, 8, 3.2 and 1.28 nM rTfR1-ECD; kon Error 2.34E+03, Full R^2 0.9963. As to the method: as §1

B1: MAb11-22.1 mAb (antibody, IgG1, V domains shown)
VH: EVQLQQSGPELVKPGASVRISCKTSGYTFTNYYIHWMKQRPGQGLEWIGWIYPGDGNSHYNEKFKGKTTLTADKSSSTGYILLSSLTSEDSAVYFCTRDYDNYGGFAYWGQGTLVTVSA
VL: IVMTQSPSSLTVTAGEKVTMSCKSSQSLLNSGNQKNYLTWYQQKPGQPPKLLIYWASTWESRVPDHFTGSGSGTDFTLTISSVQAEDLAVYYCQNDYSYPLTFGAGTKLELKR
notes: Mouse hybridoma antibody, IgG1/kappa; both are kept under this molecule
What is called IC50 is the concentration that gives 50% inhibition. Low readings indicate inhibition by little substance, high ones a need for much substance. By Kd is commonly meant the concentration at which binding is half-saturated. For orientation: EC50 (read off the curve) means the concentration at which the effect is half-maximal. As a reminder, the koff is the rate constant with which the complex falls apart. Usually kon stands for the second-order rate constant of association. With B1, in assay [1], the IC50 is 0.03 µg/mL and 0.04 µg/mL. In addition, in [2], the Kd is under 1 pM. Moreover, the “EC50 (read off the curve)” value in [3] was about 0.04 µg/mL. In addition, the koff in assay [4] and in assay [5] was under 1e-07 s⁻¹ each time. The figures for the kon in assay [6] and in assay [7] were 1.16e+06 M⁻¹ s⁻¹ and 604000 M⁻¹ s⁻¹, respectively.

B2: MAb11-22.1 chimeric Ab (cAb) (antibody, V domains shown)
VH: EVQLQQSGPELVKPGASVRISCKTSGYTFTNYYIHWMKQRPGQGLEWIGWIYPGDGNSHYNEKFKGKTTLTADKSSSTGYILLSSLTSEDSAVYFCTRDYDNYGGFAYWGQGTLVTVSA
VL: IVMTQSPSSLTVTAGEKVTMSCKSSQSLLNSGNQKNYLTWYQQKPGQPPKLLIYWASTWESRVPDHFTGSGSGTDFTLTISSVQAEDLAVYYCQNDYSYPLTFGAGTKLELKR
notes: not shown: constant region of human IgG1 heavy chain (CH1-CH3); constant region of human kappa light chain (CL)
On to B2, for which the Kd in assay [8] is under 1 pM. The koff in [9] and in assay [10] was under 1e-07 s⁻¹ throughout. Moreover, the figures for the kon in [11] and in [12] were 244000 M⁻¹ s⁻¹ and 196000 M⁻¹ s⁻¹, respectively.

B3: anti-human TfR1 control mAb (R&D Systems) (antibody, V domains shown)
VH: QVQLQQSGPELVKPGASVKMSCKASGYTFTNYYIHWVKQRPGQGLEWIGWIYPGDGSTKYNEKFKGKTTLTADKSSSTAYMLLSSLTSEDSAIYFCARDGSSAPKFTYWGQGTLVTVSA
VL: DIVMTQSPSSLTVTAGEKVTMRCKSSQSLLNSGNQKNYLTWYQQKPGQPPKLLIYWASTRESGVPDRFTGSGSGTDFTLTISSVQAEDLAVYYCQNDYSYPLTFGAGTKLELK
Consider B3, for which the IC50 in assay [1] is about 0.1 µg/mL.
